Experiments:
[1] = system: RNase M5 WT (Bacillus subtilis)
[2] = system: RNase M5 WT;ribosomal protein L18 (Bacillus subtilis;Bacillus subtilis)

Substance: 5S rRNA precursor (pre-5S)
- K half [1]: 2000 nM
- binding signal (fold higher affinity than without L18) [2]: 10
